Results: publication PMC4209447

Experiments:
[1] = molecular target: protein A/G (recombinant fusion protein with protein A and protein G binding sites)
[2] = molecular target: protein A/G (recombinant fusion protein with protein A and protein G binding sites); remark: listed apart in the source

## Human IgG protein (antibody)
[1]
  exponential constant of the fit to the association phase (peak wavelength shift): 0.000533
[2]
  peak wavelength shift after 80 minutes of injection: 6 nm
